Experiment: soluble on expression in E. coli; label from the status in PepcDB or PDB records

Row | Sequence | soluble on expression in E. coli
1 | MASSINGRKPSEIFKAQALLYKHIYAFIDSMSLKWAVEMNIPNIIQNHGKPISLSNLVSILQVPSSKIGNVRRLMRYLAHNGFFEIITKEEESYALTVASELLVRGSDLCLAPMVECVLDPTLSGSYHELKKWIYEEDLTLFGVTLGSGFWDFLDKNPEYNTSFNDAMASDSKLINLALRDCDFVFDGLESIVDVGGGTGTTAKIICETFPKLKCIVFDRPQVVENLSGSNNLTYVGGDMFTSIPNADAVLLKYILHNWTDKDCLRILKKCKEAVTNDGKRGKVTIIDMVIDKKKDENQVTQIKLLMDVNMACLNGKERNEEEWKKLFIEAGFQHYKISPLTGFLSLIEIYP | soluble
2 | VRLLESGGGLVQPGGSLKLSCAASGFDYSRYWMSWVRQAPGKGLKWIGEINPVSSTINYTPSLKDKFIISRDNAKDTLYLQISKVRSEDTALYYCARLYYGYGYWYFDVWGAGTTVTVSSAKTTPPSVYPLAPGSAAAAASMVTLGCLVKGYFPEPVTVTWNSGSLAAGVHTFPAVLQAALYTLSSSVTVPSSSWPSETVTCNVAHPASSTKVDKKIVPRA | soluble
3 | MEKYIHSVEDYHRLISYLENNLNYEDSVVNHVIYVIAKTGMRYGEIIGLTNNDTSLDEHYLHTYKRYNTSTWKWTNAKNESSKRYIPIDDKIVAALSNMIKERERINSLLRIKNKEEFLFFHYGLEHGIPSVATVNKALKKILKKLDIEPIITTKGLRHTYGSYLLHNNIDMGVVARILGHKDIQMLIQVYGHTLTEKIDKEFKEVEQIMNRILEHHHHHH | not soluble
4 | GAMSCIKGNVDLVFLFDGSMSLQPDEFQKILDFMKDVMKKLSNTSYQFAAVQFSTSYKTEFDFSDYVKRKDPDALLKHVKHMLLLTNTFGAINYVATEVFREELGARPDATKVLIIITDGEATDSGNIDAAKDIIRYIIGIGKHFQTKESQETLHKFASKPASEFVKILDTFEKLKDLFTELQKKIYVIEG | soluble
5 | MIGRERMTVASQRLIAERTYELTLSGRLVQEMRQPGQFVHVKVAASADPLLRRPLSLCHIDHKQGQCTIIYRQEGKGTALLAQKQPGDTVDVLGPLGNGFPLEAAPADSRALLVGGGIGVPPLYELAKQLTKRGVKVVSVLGFQTKAAVFYEEEFAAFGETHVATDDGSHGTAGRVTDVIEARSLEFDVLYACGPKPMLRALAERFPNRPVYLSLEERMGCGVGACFACVCHVPGSETAYKKVCSDGPVFRAGEVVL | soluble
6 | GPGSMVDDFSSLSSPYVFLHGPLCSKDTCAVAAIGTTARLPYARPHSLLPLTSFLALRPAVSSGGLRHTRAYTHLLDTRVQVRIAMSEAAPPPVLGTASSAVAPQPFGGSEASRKRRLKPISFQRMAMIQEEIARIDKHLEALEASESKVVDPDSVGQHNLTTEDVIDPVVLHMLTVELCQLAASGDAVGARILLTGGADPNSRDYDGRTLLHIACMNGRLSVVTVLLEFSADASLLDRDGNTPLEVAEEYGFGDVAQVLSGYFDAGANAVPDSFTWKPPSFESTPVSIHQPDFSAVP | not soluble
7 | MGSDKIHHHHHHMFLVCGEALFDIFTRADDGGSLNRLGFDAIAGGSPFNVAIGLRRLGVEAAFFAGLSTDYLGRRLRAVLEQETVNAEHLIEFDAPTTLAMVAVGSDGSPTYSFRGDGCADRQLRLEHLPELDERVRGIHVGSFSLVVQPIADTLLALVARESARRLISLDPNVRLNPAPDIQRWRTQIAAFAEHAHLIKVSDEDLHLLYPDSDPQQIAEGWLGKRTQLVIVTRGTQGASVFTRQHGTWSVPAKTVVTADTVGAGDTFQAALLTFLSERQLDTPQGLSTLSRETLDEMLNFAVGAAALTCTKVGPDLPYRHQLG | not soluble
8 | SESQSEEIDCNDKDLFKAVDAALKKYNSQNQSNNQFVLYRITEATKTVGSDTFYSFKYEIKEGDCPVQSGKTWQDCEYKDAAKAATGECTATVGKRSSTKFSVATQTCQITPAEGPVVTAQYDCLGCVHPISTQSPDLEPILRHG | soluble
9 | MSLTLTEVAEFVGVSAMTVSRALRMPEKVNPELRDRIDAAVSQLGYVPNLQARNLASVHSDLILAVVPTFSSPGFLPVSEALQKVLTERGYTMMFMESGHDGQSEQKTFEKMLAYNPAAIIQFNIDTIESCTQLLANVDVPILEIGALNTHPVGMCIGVDYGKAVKQIVTHLADASLKNIALLCTPANNTMFRQLLSGWNTAMLALNRSPHRVVTTHLPSTIATGVNIFKDMMITWGDLDALICTSDEMACGCMMACHSAGIKVPNTVAIASLGGGVLSTVCSPALTTVEFPWHDIGVKAGKALLELLNDKPGEKFIEIPSVLKVRASTAEGHHHHHH | soluble
10 | MGSDKIHHHHHHMTKSKNNPGRGNTIRESNTMKVMEEIREKIRKAIKEGVSLREIEEIILQEAMMEEREAYLEVEDDHKNGTYFRYLGTGDGVLRLRVPRTRKGGFRPKILPEKYERTSPDYEDFLQQLVLSGMTPSQVKAVLAAKGIPYSEIVMNRVAERISNKLKEYKSRELPHDLLALYIDVKIVKVRISESIMERAIYIAIGVDLEGNKFVLDYEVRDREDLDGWKSFLSGLVSRGVSRVDVIVSDDFSGLDRVVSTLFPSSQHQLCITHMVRNLMRVLPDKEKEELMIRVRDLKSSRNVEEGRKAILSLSQLVQPFSPARAKRLLDAADKYCSFLNFPREIRHYLYTNNTSESFNLTLARFEEELGGYFPSLRSLEVYLYVSIHESNSRWKFRPMSVIRHYSYHLKQLHASRFQVSLDEDF | not soluble
11 | MFQGCYGGTQKHEPDLHIVLERAWQQGLQKVIVTAGCLKDVDEALELASKDERIYTTVGTHPTRCEEFVPDPEGYYDQLRSRIKANRTKVRAVGECGLDYDRLHFCAQETQRLYFEKQLDLAAEFKLPLFLHMRNAAEDFMGILERNRNKIEECGGGVVHSFTGTLEEAQRILAFGGLYIGFNGCSLKTDENAEVVRKLPNDRIMLETDCPWCGIRPSHAGHKHVTTKFPTVKKKEKWTAESLIDGRCEPCQISQVLESIAGIKQEPKEQLAALYYQNTLDLFFGTGESKELEHHHHHH | not soluble
12 | MAPLFAVTLYEFKAERDDELDVSPGENLSICAHYDYEWFIAKPINRLGGPGLVPVSYVRIIDLMDPAKYASVDTYDREQVMKIIDEFKIPTVEQWKDQTRRYKESSIQIGNGHGQSQGLE | soluble
13 | MGHHHHHHSHTGKTTVAVNLAVFNHIDLFDLDVEEPNDRIFIKGEAEEWPAYRKVPEVRENCNACGVCKDVCQYSAIYVIDKAYPLPELCHSCGACIYLCPEKAMEEVDYQTGKIVRVKSDITLTYGEMRIGEASAVFLIKQVKELMGKNAIIDSPPGASCPMVESVSDADYVILVAEPTPFGLHDLKIAAEVVSDLGLKFGVVVNKHGLPFDGIERYCKEGGVEILGKIPFSKEIAEKYSRGELLHDMKDFFVQLYEG | not soluble
14 | MGSDKIHHHHHHMNARKGGVDRSRAEAGMADTLFFFHNPKAGGTSVEDALRSLFPDERCCPRIENDATEHAQRAGRYAGFRGYDFYAGHYGFDIYQAVGSGMAAATNFRWPIDRIVSVYRYFHHIVELSDSQVRDPRFRAVRLAKTLCMDDFVTCDDPAVQLHTHDHHFRQLTGSGWSMANEQDLSAAIRLINQMVWFYVCEHPHESLAWAEEAFCRALPEIPRLNITRPDSASETGLSARACRQLILQNERDIVLYQYALERLIAQVTHEPSRLVA | not soluble
15 | MGSDKIHHHHHHMKTRADLFAFFDAHGVDHKTLDHPPVFRVEEGLEIKAAMPGGHTKNLFLKDAKGQLWLISALGETTIDLKKLHHVIGSGRLSFGPQEMMLETLGVTPGSVTAFGLINDTEKRVRFVLDKALADSDPVNFHPLKNDATTAVSQAGLRRFLAALGVEPMIVDFAAMEVVG | soluble
16 | MGSDKIHHHHHHAQTTDPNQLKNEGNDALNAKNYAVAFEKYSEYLKLTNNQDSVTAYNCGVCADNIKKYKEAADYFDIAIKKNYNLANAYIGKSAAYRDMKNNQEYIATLTEGIKAVPGNATIEKLYAIYYLKEGQKFQQAGNIEKAEENYKHATDVTSKKWKTDALYSLGVLFYNNGADVLRKATPLASSNKEKYASEKAKADAAFKKAVDYLGEAVTLSPNRTEIKQMQDQVKAMIK | not soluble
17 | MSFVECPYHSPAERLVAEADEGGPSAITEILKELDECYERFSRETDGAQKRRMLHCVQRALIRSQELGDEKIQIVSQMVELVENRTRQVDSHVELFEAQQELGDTAGNSGKLEHHHHHH | not soluble
18 | MSLEFLMKKVVFALSALAVVSTSAFAAESGDGTIKFTGEIVDAPCVVSTDSQNQEVVLGQVKKNIFKAIGDKSSSKPFQIKLEDCDITSNTKVNVSFNGVGDTDDATLVSVNTEAGAATGVGIGIYDNANKLVEMNTGKSTTTLAAGQTVLYYTANYVATKDTVTTGYGNAEVDFNLSYEEGGSHHHHHH | soluble
19 | MSKLCKEFSLSATVKNMSRFVDGEEYYTDTEERFNIPWRMFIRKDSGYFDLGLVCEKDSWENREWSIETDYKMKFVSHNGDSLTDSEHFTFENSNKSDVCLMKPWDLLESDYVVDDSIVVEAYVKIIKMTDTPCDEDENIETFLLSNTVKNISSIEEGDDYYTEIATRHNVPWRMQIKRNNGFFELYLRCEKEEQPEWGWKIELDYDLRLVSLNGQSLSLTDSGSFSKPFCEGFEKFMRWNIMEENYIVKDSIIIEARGKITKMIGCDDDSSSDDGEDESSKSHSESDTSSDNLEDEFSECVINVGGQN | not soluble
20 | MNEQWMSALPLDNVKDISPVSGGDVNEAFKVTTVEEDIFFLLVQRQRSEAFYAAEIAGLNEFENAGITAPRVIASGEINGDAYLLLSFLEEGSQGSQRELARLVARMHSQYQQDNKFGFRLPHEGADISFDNSWTETWKEIFINRRMDHLQDELLRVGLWKQEDKKMYERVRKVIVDELSNHTSKPSLLHGDLWGGNYMFLTNGQPALFDPAPLYGDREFDIGITTVFGGFTQEFYDEYNQQLPLAKGSQKRIEFYRLYLLMIHLLKFGGMYADSVQRSMKIILELEHHHHHH | soluble
21 | MGSDKIHHHHHHMTTNIKTDFSPPATATPVLEMQGIAKRFHGVPALQGVNLTIYPGEVHALMGENGAGKSTLMKILAGAYIADEGEIRINGKGVKITDPGTARQAGINLIYQELNVAPNLTVTENIFMGSELTRGQFLDRKAMELEAQQVLASLGASFAPTDIVGTLAIAEQQQVEIARALKDNSRILVMDEPTAALSDRETERLFEVIRKLRNDGIAIIYISHRMEEIYALADRISVLRDGQYIGSLTREEISPQRLVQMMVGRSMQDFYEHQRQSNPGPVVLEVRNISDGRKVQPASFQLRAGEILGLAGLVGAGRTEVSRLIFGADRKVSGEVFLNGKKLEIHSPSDAIAVGIGYVPEDRKDQGLFLEMSSRKNIGLNRLKQDANLGIVNWGSVNKIATDAVENFHIRLANLEIRAVDLSGGNQQKLLLARWLAINPRVLMLDEPTRGVDIGAKSEIYRIISDLSAQGVAILMVSSELPEIVGLSDRVLVMREGQLVGELDNSIGKEITQENIMHYATGASEVTAS | not soluble
22 | MRRELGMGSEWLGEECEIVMGQSPPSETCNTVGIGIPLLNGPTEFGPHHPSPAQFTTDVRKRAIPGDILFCVRGSTTGRMNWADQEYAIGRGIAAIRHKFKPELQPFVRAVIECYLPELLAQATGSTFPNVSAQQLSNLKWPELAADEQRAIAYILGTLDDKIELNRKQNETLEAMARALFKAWFVDFEPVRAKLEGRWQRGQSLPGLPAHLYDLFPDCLVDSELGEIPEGWEIGSFADVVEIIGGSTPKTSVSEYWGGDIPWFSVVDTPASSDVFVVQTEKSITQSGLNESSARLISKGTTIISARGTVGNLAIAGCDMTFNQSCYALRSKNSLGSYFVFLSAQRMVEQLKAMAHGSVFSTITRQTFEAVQTVLPPENVLQQFERSFASLFDEILNNVNESRTLAKLRDTLLPKLISGELRVNDAKRILARIELDTATQRREQ | soluble

— the DeepSol protein solubility set
